How the values were obtained:
[1] = tested on: p53; assay: Amount of endogenous p53 in COS7 cells (immunoblot); format: cell-based, African green monkey; settings: COS7, cisplatin 20 μg/mL for 24 hours (FIG. 35)
Description: To examine the influence of UFD2a on endogenous p73, the following experiment was performed. COS7 cells were transfected or untransfected with a FLAG-UFD2a expression plasmid. After 24 hours of the transfection, the cells were exposed to cisplatin (final concentration: 20 μg/mL) for 24 hours or left untreated. Whole cell lysates were prepared from the transfected cells and analyzed for p73α, p53, and UFD2a expression by immunoblot. Actin was utilized as a control for addition.

[2] = tested on: H1299 cells; assay: p73-dependent apoptosis (DAPI staining, abnormal nuclei); format: cell-based, human; settings: H1299, cotransfection with HA-p73α, 48 hours (FIG. 36)
Description: (§1) To examine the influence of UFD2a on p73-dependent apoptosis, the following experiment was performed. p53-deficient H1299 cells were transiently cotransfected with the given combinations (HA-p73α, p53, and FLAG-UFD2a) of expression plasmids. After 48 hours of the transfection, the cells were fixed at room temperature for 30 minutes in 3.7% formaldehyde, then permeabilized at room temperature for 5 minutes with 0.2% Triton X-100, and blocked for 1 hour with 3% BSA. The cells were washed three times with 1×PBS and stained at room temperature for 20 minutes with DAPI (4′,6-diamidino-2-phenylindole; 1 μg/mL). Of the cells transfected with GFP, cells having abnormal nuclei were counted under a microscope.

[3] = tested on: H1299 cells; assay: p53-dependent apoptosis (DAPI staining, abnormal nuclei); format: cell-based, human; settings: H1299, cotransfection with p53, 48 hours (FIG. 36)
Description: as §1

[4] = target: T1, p73 (Homo sapiens, UniProt O15350); assay: p73 protein level (stabilization) by immunoblot in cotransfected COS7 cells; format: cell-based; settings: COS7 cotransfection (FIG. 14, 15, 29)
T1 construct: expressed in transfected cells; host or cells: COS7
T1 sequence (O15350 1-636): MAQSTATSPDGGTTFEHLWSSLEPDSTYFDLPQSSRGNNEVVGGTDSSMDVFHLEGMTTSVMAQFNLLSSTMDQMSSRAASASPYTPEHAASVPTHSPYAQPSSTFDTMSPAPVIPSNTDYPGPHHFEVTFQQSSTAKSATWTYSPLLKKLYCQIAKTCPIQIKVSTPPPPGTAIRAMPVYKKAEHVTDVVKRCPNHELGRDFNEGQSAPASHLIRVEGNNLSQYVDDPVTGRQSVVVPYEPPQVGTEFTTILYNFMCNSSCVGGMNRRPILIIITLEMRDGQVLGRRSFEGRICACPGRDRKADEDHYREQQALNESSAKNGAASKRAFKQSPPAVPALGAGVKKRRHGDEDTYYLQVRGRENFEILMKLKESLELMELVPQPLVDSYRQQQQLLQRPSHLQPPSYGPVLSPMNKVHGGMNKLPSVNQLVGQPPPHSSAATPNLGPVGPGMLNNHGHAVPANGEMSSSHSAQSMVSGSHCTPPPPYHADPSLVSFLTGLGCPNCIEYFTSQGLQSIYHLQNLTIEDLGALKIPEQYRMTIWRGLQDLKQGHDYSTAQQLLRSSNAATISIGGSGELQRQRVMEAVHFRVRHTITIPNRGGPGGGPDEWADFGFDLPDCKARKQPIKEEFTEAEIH
Description: Cells were transiently transfected with a total of 2 μg of expression plasmids. After 48 hours of the transfection, the cells were washed with ice-cold PBS and suspended in lysis buffer (pH 8.0; which contained 25 mM Tris-Cl, 137 mM sodium chloride, 1% Triton X-100, 1 mM phenylmethylsulfonyl fluoride (PMSF), and protease inhibitor mix (Roche Molecular Biochemicals)), followed by brief sonication. After centrifugation at 15000 rpm for 10 minutes, the supernatant was collected and assayed for protein concentrations by the Bradford assay (Bio-Rad). Equal amounts of lysates (protein amount: 50 μg) from the whole cells were denatured by boiling in Laemmli SDS-sample buffer, then separated on 10% SDS-polyacrylamide gel (SDS-PAGE), and transferred at room temperature for 1 hour to polyvinylidene difluoride (PVDF) membranes (Immobilon-P; Millipore) in Tris-glycine buffer containing 10% methanol. The membranes were blocked at room temperature for 1 hour with Tris-buffered saline (TBS-T) containing 5% skim milk and 0.1% Tween 20.
As previously reported, some protein kinases (e.g., c-Abl and PKCδ) that interact with p73 can stabilize p73. To confirm whether IKK-α influenced the stabilization of p73, COS7 cells were transfected with a constant amount of HA-p73α expression plasmid together with or without varying amounts of IKK-α expression plasmids and examined for HA-p73α protein levels. […] Next, whether IKK-β influenced the stabilization of p73 and p53 was investigated by transient transfection.

[5] = tested on: endogenous p53; assay: Amount of endogenous p53 in cisplatin-treated U2OS cells (immunoblot); format: cell-based, human; settings: cisplatin 24 hours (FIG. 30)
[6] = target: T1, p73; assay: Co-immunoprecipitation with p73 in transfected COS7 cells; format: binding; settings: COS7, co-immunoprecipitation (FIG. 10, FIG. 28)
Description: Whole cell lysates were centrifuged at 15000 rpm for 15 minutes to remove cell debris. The obtained supernatant was pretreated at 4° C. for 30 minutes with protein G-Sepharose (50% slurry, 30 μL; Amersham Pharmacia Biotech). After centrifugation, the supernatant was incubated at 4° C. for 2 hours with an anti-HA polyclonal (Medical and Biological Laboratories) or anti-FLAG monoclonal antibody. The immunocomplexes were precipitated at 4° C. for 30 minutes with protein G-Sepharose beads. After collection by brief centrifugation, the immunoprecipitates were washed three times with lysis buffer, then suspended in 30 μL of 2×Laemmli SDS sample buffer, and treated at 100° C. for 5 minutes. The supernatant was loaded onto 10% SDS-PAGE and analyzed by immunoblot as described above.
To investigate whether IKK-α interacted with p73 in cultured mammal cells, whole cell lysates were prepared from transfected COS7 cells, then immunoprecipitated with an anti-FLAG or anti-HA antibody, and analyzed by immunoblot using an anti-p73 or anti-FLAG antibody, respectively. […] Likewise, HA-p73β was co-immunoprecipitated with FLAG-IKK-α (data not shown). […] To identify determinants of p73 participating in the interaction with IKK-α, several deletion mutants of p73 fused to GST were prepared and examined for their abilities to bind to FLAG-IKK-α by in-vitro pull-down assay. These mutants were designed on the basis of the functional domains of p73 including transactivation, DNA-binding, oligomerization, and SAM domains (FIG. 12).

[7] = tested on: U2OS or H1299 cells; assay: Apoptosis induced by cisplatin in transfected cells; format: cell-based, human; settings: U2OS and H1299 (FIGS. 31 and 33)

B1: UFD2a: UFD2a protein, SEQ ID NO: 26, U-box ubiquitin protein ligase; apoptosis inhibitor (protein, listed as Homo sapiens)
chain: MEELSADEIRRRRLARLAGGQTSQPTTPLTSPQRENPPGPPIAASAPGPSQSLGLNVHNMTPATSPIGASGVAHRSQSSEGVSSLSSSPSNSLETQSQSLSRSQSMDIDGVSCEKSMSQVDVDSGIENMEVDENDRREKRSLSDKEPSSGPEVSEEQALQLVCKIFRVSWKDRDRDVIFLSSLSAQFKQNPKEVFSDFKDLIGQILMEVLMMSTQTRDENPFASLTATSQPIAAAARSPDRNLLLNTGSNPGTSPMFCSVASFGASSLSSLGASGGASNWDSYSDHFTIETCKETDMLNYLIECFDRVGIEEKKAPKMCSQPAVSQLLSNIRSQCISHTALVLQGSLTQPRSLQQPSFLVPYMLCRNLPYGFIQELVRTTHQDEEVFKQIFIPILQGLALAAKECSLDSDYFKYPLMALGELCETKFGKTHPVCNLVASLRLWLPKSLSPGCGRELQRLSYLGAFFSFSVFAEDDVKVVEKYFSGPAITLENTRVVSQSLQHYLELGRQELFKILHSILLNGETREAALSYMAAVVNANMKKAQMQTDDRLVSTDGFMLNFLWVLQQLSTKIKLETVDPTYIFHPRCRITLPNDETRVNATMEDVNDWLTELYGDQPPFSEPKFPTECFFLTLHAHHLSILPSCRRYIRRLRAIRELNRTVEDLKNNESQWKDSPLATRHREMLKRCKTQLKKLVRCKACADAGLLDESFLRRCLNFYGLLIQLLLRILDPAYPDITLPLNSDVPKVFAALPEFYVEDVAEFLFFIVQYSPQALYEPCTQDIVMFLVVMLCNQNYIRNPYLVAKLVEVMFMTNPAVQPRTQKFFEMIENHPLSTKLLVPSLMKFYTDVEHTGATSEFYDKFTIRYHISTIFKSLWQNIAHHGTFMEEFNSGKQFVRYINMLINDTTFLLDESLESLKRIHEVQEEMKNKEQWDQLPRDQQQARQSQLAQDERVSRSYLALATETVDMFHILTKQVQKPFLRPELGPRLAAMLNFNLQQLCGPKCRDLKVENPEKYGFEPKKLLDQLTDIYLQLDCARFAKAIADDQRSYSKELFEEVISKMRKAGIKSTIAIEKFKLLAEKVEEIVAKNARAEIDYSDAPDEFRDPLMDTLMTDPVRLPSGTIMDRSIILRHLLNSPTDPFNRQTLTESMLEPVPELKEQIQAWMREKQNSDH
[1]
  amount of endogenous p53: no influence on the amount of endogenous p53
[2]
  number of apoptotic cells, p73-dependent: decreased the number of apoptotic cells
[3]
  p53-dependent apoptosis: could not suppress p53-dependent apoptosis

B2: IKK-α (K44A): IKK-α with 44th lysine substituted by alanine, SEQ ID NO: 25, lacking kinase activity; apoptosis inhibitor (protein)
chain: MERPPGLRPGAGGPWEMRERLGTGGFGNVCLYQHRELDLKIAIASCRLELSTKNRERWCHEIQIMKKLNHANVVKACDVPEELNILIHDVPLLAMEYCSGGDLRKLLNKPENCCGLKESQILSLLSDIGSGIRYLHENKIIHRDLKPENIVLQDVGGKIIHKIIDLGYAKDVDQGSLCTSFVGTLQYLAPELFENKPYTATVDYWSFGTMVFECIAGYRPFLHHLQPFTWHEKIKKKDPKCIFACEEMSGEVRFSSHLPQPNSLCSLIVEPMENWLQLMLNWDPQQRGGPVDLTLKQPRCFVLMDHILNLKIVHILNMTSAKIISFLLPPDESLHSLQSRIERETGINTGSQELLSETGISLDPRKPASQCVLDGVRGCDSYMVYLFDKSKTVYEGPFASRSLSDCVNYIVQDSKIQLPIIQLRKVWAEAVHYVSGLKEDYSRLFQGQRAAMLSLLRYNANLTKMKNTLISASQQLKAKLEFFHKSIQLDLERYSEQMTYGISSEKMLKAWKEMEEKAIHYAEVGVIGYLEDQIMSLHAEIMELQKSPYGRRQGDLMESLEQRAIDLYKQLKHRPSDHSYSDSTEMVKIIVHTVQSQDRVLKELFGHLSKLLGCKQKIIDLLPKVEVALSNIKEADNTVMFMQGKRQKEIWHLLKIACTQSSARSLVGSSLEGAVTPQTSAWLPPTSAEHDHSLSCVVTPQDGETSAQMIEENLNCLGHLSTIIHEANEEQGNSMMNLDWSWLTE
modifications: IKK-alpha(K44A)
[4]
  amount of HA-p73α: almost no effect on the intracellular level of exogenously expressed HA-p73α
[5]
  amount of endogenous p53: no remarkable effect on the amount of endogenous p53
[6]
  complex formation with HA-p73α: maintained the ability to form complexes with p73α
[7]
  apoptosis induced by cisplatin: remarkably inhibited

Reference: patent US7618787B2, “Method of screening compound capable of accelerating or inhibiting apoptosis, apoptosis accelarator and apoptosis inhibitor” (Hisamitsu Pharmaceutical Co., Inc., priority 2004, dated 2009)
